Paper PMC12017343, “Extended repertoire of CXC chemokines acting as agonists and antagonists of the human and murine atypical chemokine receptor ACKR2” (Journal of Leukocyte Biology, 2025)

T1: mouse ACKR2 N-terminally fused with the NanoLuc (mouse, UniProt O08707 1-378)
T1 construct: atypical chemokine receptor 2 (ACKR2), mouse; also called mACKR2; NanoLuc-ACKR2; source: HEK293T, stably expressing (pIRES-puromycin vector), on cells; not shown: NanoLuc, N-terminal, kept
T1 sequence (looked up): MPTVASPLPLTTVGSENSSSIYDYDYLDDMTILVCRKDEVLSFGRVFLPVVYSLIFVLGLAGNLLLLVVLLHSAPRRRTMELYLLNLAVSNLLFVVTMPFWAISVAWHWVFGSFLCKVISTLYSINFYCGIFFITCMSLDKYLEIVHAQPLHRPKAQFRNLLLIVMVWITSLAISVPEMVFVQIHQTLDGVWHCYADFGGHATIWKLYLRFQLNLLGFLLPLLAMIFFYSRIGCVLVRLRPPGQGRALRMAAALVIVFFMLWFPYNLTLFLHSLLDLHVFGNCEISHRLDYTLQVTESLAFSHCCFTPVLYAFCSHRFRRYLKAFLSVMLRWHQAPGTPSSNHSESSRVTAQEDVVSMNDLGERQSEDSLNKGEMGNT

B1: mouse CXCL5 (ligand)
chain: APSSVIAATELRCVCLTVTPKINPKLIANLEVIPAGPQCPTVEVIAKLKNQKEVCLDPEAPVIKKIIQKILGSDKKKAKRNALAVERTASVQ
modifications: The paper prints no limits. The full-length mature chain after the signal peptide was taken for the 'native' chemokine (Protein Foundry); the commercial form could instead be GCP-2(1-78), 41-118, or …
B2: mouse CXCL10 (ligand, UniProt P17515 22-98, looked up)
chain: IPLARTVRCNCIHIDDGPVRMRAIGKLEIIPASLSCPRVEIIATMKKNDEQRCLNPESKTIKNLMKAFSQKRSKRAP
notes: CXCL10, mouse, native chemokine; source: bought: Protein Foundry
B3: mouse CXCL11 (ligand, UniProt Q9JHH5 22-100, looked up)
chain: FLMFKQGRCLCIGPGMKAVKMAEIEKASVIYPSNGCDKVEVIVTMKAHKRQRCLDPRSKQARLIMQAIEKKNFLRRQNM
notes: CXCL11, mouse, native chemokine; source: bought: Protein Foundry

Target: T1, mouse ACKR2 N-terminally fused with the …
Assay: FRET or BRET; NanoBRET competition binding, concentration-response: increasing chemokine (highest 300 nM) against LIH222-AZ594 (5 nM for human, 10 nM for mouse) on HEK293T cells expressing NanoLuc-ACKR2; 2 h on ice
Conditions: one partner purified

| Binder | pIC50 |
| --- | --- |
| B1 | ≤ 8.51 |
| B2 | ≤ 8.01 |
| B3 | ≤ 7.04 |
